Patent US20060269997A1 (Genentech, published 2006)

Columns and labels:
[1] = biological target: T1, Flt-1 on Flt-1-transfected NIH3T3 cells (UniProt P17948 27-1338, limits assumed); experiment: competitive displacement of 125I-VEGF (legend: 1-165; Example 7: 1-109) from Flt-1-transfected NIH3T3 cells
T1 construct: whole, on cells; also called FLT-1 expressing NIH3T3 cells; Flt-1-transfected cells
Protocol: (§1) KDR or Flt-1 transfected NIH3T3 cells were prepared as described by Fuh et al., J. Biol. Chem., 273:11187-11204 (1998). The transfected cells were maintained in F12 media supplemented with 10% FBS and 400 ug/ml G418 (GibcoBRL). For the binding assays, the cells were plated in 12-wells plates at 1×10⁶/well to reach confluency next day. […] The plates were incubated at 4° C. for three hours and then washed two times with HBS with […].

[2] = biological target: T2, KDR on KDR-transfected NIH3T3 cells (UniProt P35968 20-1356, limits assumed); experiment: competitive displacement of 125I-VEGF (legend: 1-165; Example 7: 1-109) from KDR-transfected NIH3T3 cells
T2 construct: whole, on cells; also called KDR expressing NIH3T3 cells; KDR-transfected 3T3 cells
Protocol: as §1

[3] = biological target: KDR receptor (soluble RIA of Examples 6 and 8) (UniProt P35968); experiment: soluble radio-immuno receptor-binding assay (RIA)
[4] = biological target: T3, Flt-IgG (a chimeric Flt-human Fc molecule) (UniProt P17948 27-758, limits assumed); experiment: competition ELISA vs biotinylated native VEGF, Flt-IgG captured by anti-Fc
T3 construct: Only described as a chimeric Flt-human Fc molecule; not shown: human Fc
Protocol: (§2) Receptor binding assays were performed in 96-well immunoplates (Maxisorp, Nunc-Immunoplate, Nalge Nunc International, Rochester, N.Y.). Each well was coated with 100 μl of a solution containing 2 μg/ml of rabbit F(ab′)2 to human IgG Fc (Jackson ImmunoResearch, West Grove, Pa.) in 50 mM carbonate buffer at pH 9.6 and incubated at 4° C. overnight. The supernatant was then discarded, the wells were washed three times in washing buffer (0.05% Tween 20 in PBS), and the plate was blocked (150 μl per well) with block buffer (0.5% BSA, 0.01% thimerosal in PBS) at room temperature for one hour. The supernatant was discarded, and the wells were washed.
The wells were filled with 100 μl of a solution containing Flt-IgG (a chimeric Flt-human Fc molecule) at 50 ng/ml in assay buffer (0.5% BSA, 0.05% Tween 20 in PBS). The wells were incubated at room temperature for 1 hour and then washed three times in wash buffer (0.05% Tween 20 in PBS).
(§3) Aliquots of the mixture (100 μl) were added to the precoated microtiter wells and the plate was incubated for 2 hours at room temperature. […] The wells were then incubated with 3,3′, 5,5′-tetramethyl benzidine (0.2 g/liter, Kirkegaard & Perry Laboratories, Gaithersburg, Md.) for about 10 minutes at room temperature. Absorbance was read at 450 nm on a Vmax plate reader (Molecular Devices, Menlo Park, Calif.).

KDR (1-3) monomer [5] = biological target: T4, KDR (1-3) monomer (UniProt P35968 20-327, limits assumed, biotin-labeled in the ELISA of Example 8); experiment: competition ELISA vs biotinylated VEGF (8-109), soluble KDR (1-3) captured by MAKD5
T4 construct: domain: domains 1 to 3; Genentech reagent; also called domains 1 to 3 of KDR
Protocol: as §2, with “containing 8” for “containing 2”, “of a monoclonal antibody” for “of rabbit F(ab′)2”, “to KDR known as MAKD5 (Genentech, South San Francisco, Calif.)” for “to human IgG Fc (Jackson ImmunoResearch, West Grove, Pa.)”, “was” for “was then”
as §3, with “of this” for “of the”, “for 1 hour” for “for 2 hours”, “(0.2 gram/liter;” for “(0.2 g/liter,”
(§4) Titration curves were fit with a four-parameter nonlinear regression curve-fitting program (KaleidaGraph, Synergy Software, Reading, Pa.).

[6] = biological target: gD-KDR receptor on CHO cells (UniProt P35968 20-1356); experiment: cell-based or functional assay
[7] = biological target: FLT-1 receptor (soluble RIA of Examples 6 and 8) (UniProt P17948 27-758, limits assumed); experiment: radio-immuno receptor-binding assay (RIA)
[8] = biological target: KDR receptor (soluble RIA of Examples 6 and 8) (UniProt P35968 20-764, limits assumed); experiment: radio-immuno receptor-binding assay (RIA)
[9] = biological target: KDR on human umbilical vein endothelial cells (HUVEC) (human, UniProt P35968 20-1356); experiment: cell-based or functional assay
KDR (1-3) monomer [10] = biological target: T4, KDR (1-3) monomer; experiment: competition ELISA: inhibits binding of biotinylated native VEGF (8-109) to KDR (1-3) captured by antibody MAKD5 (Example 2)
Protocol: as §2, with “containing 8” for “containing 2”, “of a monoclonal antibody” for “of rabbit F(ab′)2”, “to KDR known as MAKD5 (Genentech, South San Francisco, Calif.)” for “to human IgG Fc (Jackson ImmunoResearch, West Grove, Pa.)”, “was” for “was then”
as §3, with “of this” for “of the”, “for 1 hour” for “for 2 hours”, “(0.2 gram/liter;” for “(0.2 g/liter,”
as §4

T3 sequence (P17948 27-758 limits assumed, change not shown): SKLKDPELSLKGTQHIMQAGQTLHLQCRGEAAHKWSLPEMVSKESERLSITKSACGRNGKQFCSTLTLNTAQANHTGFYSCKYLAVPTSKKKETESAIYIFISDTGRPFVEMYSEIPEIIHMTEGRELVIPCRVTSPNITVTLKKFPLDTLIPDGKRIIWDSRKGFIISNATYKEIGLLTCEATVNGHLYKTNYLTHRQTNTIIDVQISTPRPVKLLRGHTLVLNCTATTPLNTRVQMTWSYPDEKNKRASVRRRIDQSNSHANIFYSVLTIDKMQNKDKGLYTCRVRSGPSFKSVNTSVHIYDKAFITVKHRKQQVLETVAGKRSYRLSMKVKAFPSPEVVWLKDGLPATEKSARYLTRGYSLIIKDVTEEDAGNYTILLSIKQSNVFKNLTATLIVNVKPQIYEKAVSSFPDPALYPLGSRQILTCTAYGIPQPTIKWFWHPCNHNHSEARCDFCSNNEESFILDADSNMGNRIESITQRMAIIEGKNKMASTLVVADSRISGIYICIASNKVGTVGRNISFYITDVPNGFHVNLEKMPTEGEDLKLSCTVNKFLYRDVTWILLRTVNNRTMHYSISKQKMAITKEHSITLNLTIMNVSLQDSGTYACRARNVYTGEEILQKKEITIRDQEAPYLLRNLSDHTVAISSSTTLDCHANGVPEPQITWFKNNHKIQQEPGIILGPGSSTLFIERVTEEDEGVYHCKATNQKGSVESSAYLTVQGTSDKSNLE
Sequence of KDR on human umbilical vein endothelial cells (HUVEC) (P35968 20-1356): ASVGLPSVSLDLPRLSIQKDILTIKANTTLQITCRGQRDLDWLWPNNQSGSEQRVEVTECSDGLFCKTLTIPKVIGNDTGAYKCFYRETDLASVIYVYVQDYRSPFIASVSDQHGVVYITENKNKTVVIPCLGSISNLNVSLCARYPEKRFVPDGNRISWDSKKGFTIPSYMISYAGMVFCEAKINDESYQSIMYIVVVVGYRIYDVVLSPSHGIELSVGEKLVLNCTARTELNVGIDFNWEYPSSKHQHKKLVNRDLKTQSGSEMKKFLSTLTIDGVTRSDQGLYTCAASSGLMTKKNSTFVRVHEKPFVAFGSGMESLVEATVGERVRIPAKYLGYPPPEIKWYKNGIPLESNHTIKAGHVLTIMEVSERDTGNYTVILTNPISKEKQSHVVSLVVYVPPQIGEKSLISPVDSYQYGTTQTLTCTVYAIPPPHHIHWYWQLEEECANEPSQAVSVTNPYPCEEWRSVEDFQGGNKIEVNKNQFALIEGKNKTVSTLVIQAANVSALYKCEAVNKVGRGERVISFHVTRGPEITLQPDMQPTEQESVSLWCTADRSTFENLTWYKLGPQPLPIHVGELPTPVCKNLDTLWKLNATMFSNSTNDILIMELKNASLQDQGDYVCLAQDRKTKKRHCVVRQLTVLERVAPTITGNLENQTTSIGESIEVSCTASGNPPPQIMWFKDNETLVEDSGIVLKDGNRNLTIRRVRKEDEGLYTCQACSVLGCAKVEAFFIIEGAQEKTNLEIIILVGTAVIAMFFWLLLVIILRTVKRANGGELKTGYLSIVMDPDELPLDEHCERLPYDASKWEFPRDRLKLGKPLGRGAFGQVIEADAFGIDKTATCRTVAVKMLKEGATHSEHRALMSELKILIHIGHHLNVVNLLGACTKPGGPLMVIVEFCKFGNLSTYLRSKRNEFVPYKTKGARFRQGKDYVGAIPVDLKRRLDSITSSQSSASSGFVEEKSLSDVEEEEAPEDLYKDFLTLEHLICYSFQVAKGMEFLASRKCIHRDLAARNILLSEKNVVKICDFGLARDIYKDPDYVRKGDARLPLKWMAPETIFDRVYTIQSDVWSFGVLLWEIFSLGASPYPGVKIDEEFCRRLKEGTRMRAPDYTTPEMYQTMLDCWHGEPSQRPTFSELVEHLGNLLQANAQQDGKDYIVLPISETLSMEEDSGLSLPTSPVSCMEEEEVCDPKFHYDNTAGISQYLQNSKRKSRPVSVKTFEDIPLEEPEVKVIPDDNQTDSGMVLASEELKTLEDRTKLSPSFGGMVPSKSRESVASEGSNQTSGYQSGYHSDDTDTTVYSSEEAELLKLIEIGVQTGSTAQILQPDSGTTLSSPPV
T1 sequence (P17948 27-1338 limits assumed): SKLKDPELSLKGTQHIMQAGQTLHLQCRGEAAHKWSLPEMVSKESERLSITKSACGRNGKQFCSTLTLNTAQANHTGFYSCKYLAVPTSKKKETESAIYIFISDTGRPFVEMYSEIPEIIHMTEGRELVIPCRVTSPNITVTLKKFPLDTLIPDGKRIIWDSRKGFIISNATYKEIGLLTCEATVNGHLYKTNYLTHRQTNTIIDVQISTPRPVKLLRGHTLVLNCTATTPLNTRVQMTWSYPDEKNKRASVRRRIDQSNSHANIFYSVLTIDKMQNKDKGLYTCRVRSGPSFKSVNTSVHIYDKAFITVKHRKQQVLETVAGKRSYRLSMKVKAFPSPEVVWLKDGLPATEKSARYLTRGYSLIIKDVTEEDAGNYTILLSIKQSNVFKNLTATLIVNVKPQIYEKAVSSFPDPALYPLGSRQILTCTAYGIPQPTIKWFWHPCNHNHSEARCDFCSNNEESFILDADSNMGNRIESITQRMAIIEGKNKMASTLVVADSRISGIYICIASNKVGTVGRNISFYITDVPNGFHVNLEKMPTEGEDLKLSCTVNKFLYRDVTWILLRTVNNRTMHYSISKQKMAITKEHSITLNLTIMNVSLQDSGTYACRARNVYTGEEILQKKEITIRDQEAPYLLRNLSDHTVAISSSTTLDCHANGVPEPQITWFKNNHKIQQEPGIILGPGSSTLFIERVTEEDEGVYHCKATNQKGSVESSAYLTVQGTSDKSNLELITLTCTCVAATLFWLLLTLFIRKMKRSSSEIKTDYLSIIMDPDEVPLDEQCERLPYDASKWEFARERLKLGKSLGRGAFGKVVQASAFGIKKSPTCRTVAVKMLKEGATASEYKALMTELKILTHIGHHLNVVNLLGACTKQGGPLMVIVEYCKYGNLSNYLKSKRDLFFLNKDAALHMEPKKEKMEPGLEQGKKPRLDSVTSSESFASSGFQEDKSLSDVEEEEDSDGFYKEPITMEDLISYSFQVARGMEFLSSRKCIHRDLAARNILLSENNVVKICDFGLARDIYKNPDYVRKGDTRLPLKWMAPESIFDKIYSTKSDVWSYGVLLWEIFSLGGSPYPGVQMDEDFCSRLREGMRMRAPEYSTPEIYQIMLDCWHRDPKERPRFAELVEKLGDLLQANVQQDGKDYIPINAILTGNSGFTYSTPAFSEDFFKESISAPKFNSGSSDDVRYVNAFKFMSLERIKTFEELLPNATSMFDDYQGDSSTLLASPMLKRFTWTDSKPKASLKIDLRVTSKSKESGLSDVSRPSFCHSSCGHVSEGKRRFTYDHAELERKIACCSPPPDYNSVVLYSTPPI
T4 sequence (P35968 20-327 limits assumed): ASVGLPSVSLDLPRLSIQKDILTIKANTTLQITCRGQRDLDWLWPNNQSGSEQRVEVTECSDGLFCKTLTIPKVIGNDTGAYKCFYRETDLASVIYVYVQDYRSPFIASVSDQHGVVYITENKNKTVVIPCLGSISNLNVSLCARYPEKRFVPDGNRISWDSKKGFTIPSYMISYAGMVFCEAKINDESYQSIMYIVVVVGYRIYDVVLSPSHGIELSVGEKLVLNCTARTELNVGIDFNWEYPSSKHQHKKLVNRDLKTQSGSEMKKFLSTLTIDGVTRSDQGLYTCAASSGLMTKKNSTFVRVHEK
T2 sequence (P35968 20-1356 limits assumed): as the sequence (P35968 20-1356) above
Sequence of FLT-1 receptor (soluble RIA of Examples 6 and 8) (P17948 27-758 limits assumed): as the sequence (P17948 27-758 limits assumed, change not shown) above
Sequence of KDR receptor (soluble RIA of Examples 6 and 8) (UniProt P35968) (P35968 20-764 limits assumed): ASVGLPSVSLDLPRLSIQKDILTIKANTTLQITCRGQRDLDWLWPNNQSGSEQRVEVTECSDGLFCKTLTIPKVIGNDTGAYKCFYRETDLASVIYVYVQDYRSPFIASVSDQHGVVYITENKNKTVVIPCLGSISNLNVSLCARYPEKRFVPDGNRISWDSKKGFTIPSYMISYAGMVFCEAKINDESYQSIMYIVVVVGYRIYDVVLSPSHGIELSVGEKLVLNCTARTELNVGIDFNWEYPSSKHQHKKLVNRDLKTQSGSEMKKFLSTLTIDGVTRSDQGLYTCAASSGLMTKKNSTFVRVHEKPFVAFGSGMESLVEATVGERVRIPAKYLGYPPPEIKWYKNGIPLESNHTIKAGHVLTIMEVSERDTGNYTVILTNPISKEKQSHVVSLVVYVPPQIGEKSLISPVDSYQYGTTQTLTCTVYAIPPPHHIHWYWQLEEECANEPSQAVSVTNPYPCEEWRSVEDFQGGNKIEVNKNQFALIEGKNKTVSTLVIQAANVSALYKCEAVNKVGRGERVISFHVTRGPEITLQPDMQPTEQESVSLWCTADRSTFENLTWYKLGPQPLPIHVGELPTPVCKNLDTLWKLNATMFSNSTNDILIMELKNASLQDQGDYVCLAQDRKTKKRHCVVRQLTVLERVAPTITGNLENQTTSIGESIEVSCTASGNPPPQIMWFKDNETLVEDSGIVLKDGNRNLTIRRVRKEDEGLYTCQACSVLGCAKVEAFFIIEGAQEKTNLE
Sequence of KDR receptor (soluble RIA of Examples 6 and 8) (UniProt P35968 20-764, limits assumed) (P35968 20-764 limits assumed): as above

B1: WT VEGF (ligand, human, UniProt P15692-4 27-191, looked up)
VEGF monomer: APMAEGGGQNHHEVVKFMDVYQRSYCHPIETLVDIFQEYPDEIEYIFKPSCVPLMRCGGCCNDEGLECVPTEESNITMQIMRIKPHQGQHIGEMSFLQHNKCECRPKKDRARQENPCGPCSERRKHLFVQDPQTCKCSCKNTDSRCKARQLELNERTCRCDKPRR
IC50 (read off the curve) [1]: ~0.04 nM

B2: Flt-sel (I43A/I46A/Q79A/I83A, VEGF 1-109 form) (ligand, human, UniProt P15692-4 27-135, looked up)
chain: APMAEGGGQNHHEVVKFMDVYQRSYCHPIETLVDIFQEYPDEAEYAFKPSCVPLMRCGGCCNDEGLECVPTEESNITMAIMRAKPHQGQHIGEMSFLQHNKCECRPKKD
notes: also called Flt-1-sel; Flt-1 selective variant
binding result [2]: no binding (tested: log -6.7 M (about 2e-7 M))
fold reduced KDR-binding affinity (against native VEGF) [3]: > 470 fold
binding result [1]: binds

B3: LK-VRB-1s* (ligand, human, UniProt P15692-4 27-135, looked up)
chain: APMAEGGGQNHHEVVKFEDVLRRSSCHPIETLVDIFQEYPDEIEYIFKPSCVPLMRCGGCCNDEGLECVPTEESNITMQIMRIKPHQGQHIGEMSFLQHNKCECRPKKD
IC50 [4]: 2700 nM
Relative Binding Affinity (ratio to native VEGF (8-109)) [4]: 6000 fold
IC50 (KDR (1-3) monomer [5]): 1 nM
Relative Binding Affinity (ratio to native VEGF (8-109)) (KDR (1-3) monomer [5]): 1 fold
Phosphorylation-Inducing Activity (KIRA), midpoint concentration [6]: 1 nM
Phosphorylation-Inducing Activity (KIRA), ratio to native VEGF (8-109) [6]: 0.5 fold
Relative Binding Affinity (ratio to native VEGF 165) [7]: 14000 fold
Relative Binding Affinity (ratio to native VEGF 165) [8]: 20 fold
Endothelial Cell Proliferation Activity (HUVEC), ratio to native VEGF (8-109) [9]: 0.2 fold
Endothelial Cell Proliferation Activity (HUVEC, 3H-thymidine), concentration [9]: 0.1 nM

B4: LK-VRB-2s* (ligand, human, UniProt P15692-4 27-135, looked up)
chain: APMAEGGGQNHHEVVKFMDVYQRSYCHPIETLVDIFQEYPDEIEYIFKPSCVPLMRCGGCCNSEMRECVPTEESNITMQIMRIKPHQGQHIGEMSFLQHNKCECRPKKD
notes: also called KDR selective variant
IC50 (read off the curve) [2]: ~0.8 nM
Phosphorylation-Inducing Activity (KIRA), midpoint concentration [6]: 2 nM
Endothelial Cell Proliferation Activity (HUVEC, 3H-thymidine), concentration [9]: 0.05 nM
IC50 (read off the curve) [1]: ~10 nM

B5: native VEGF (8-109) (ligand, human, UniProt P15692 214-315, looked up)
chain: GQNHHEVVKFMDVYQRSYCHPIETLVDIFQEYPDEIEYIFKPSCVPLMRCGGCCNDEGLECVPTEESNITMQIMRIKPHQGQHIGEMSFLQHNKCECRPKKD
modifications: biotinylated where used as tracer
IC50 [4]: 0.42 nM
Phosphorylation-Inducing Activity (KIRA), midpoint concentration [6]: 2 nM
Endothelial Cell Proliferation Activity (HUVEC, 3H-thymidine), concentration [9]: 0.5 nM
IC50 (read off the curve) (KDR (1-3) monomer [10]): ~2 nM
